Results as given in article PMC13462943.

How the values were obtained:
[1] = target: T1, N-terminal histone H3 peptide (amino acid residues 1-20), P68431; assay: native mass spectrometry; conditions: chain shown with the change, protein and substrate concentrations 5 µM
[2] = target: T1, N-terminal histone H3 peptide (amino …); assay: differential scanning fluorimetry; conditions: chain shown with the change; 500 µM histone H3 peptide; parent: est. 4.4; read off a plot
[3] = target: T2, G9a methyltransferase domain (aa residues 913-1193), Del 1163-4, Q96KQ7-1; assay: native mass spectrometry (nESI-MS); conditions: chain shown with the change;; read off a plot
T2 chain: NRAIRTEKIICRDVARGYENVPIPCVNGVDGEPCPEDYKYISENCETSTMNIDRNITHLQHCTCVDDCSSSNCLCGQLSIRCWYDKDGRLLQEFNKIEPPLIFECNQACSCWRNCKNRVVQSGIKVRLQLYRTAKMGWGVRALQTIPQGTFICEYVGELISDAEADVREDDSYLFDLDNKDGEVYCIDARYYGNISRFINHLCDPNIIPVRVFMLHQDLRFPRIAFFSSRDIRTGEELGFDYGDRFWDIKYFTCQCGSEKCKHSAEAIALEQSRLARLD

other: relative abundance, 2x peptide bound ([1]; parent: 24): < 1 | other: relative abundance, free protein ([1]; parent: 30): 88 | other: relative abundance, 1x peptide bound ([1]; parent: 46): 11 | other: ΔTm upon substrate addition [2]: 2.3 °C | ratio to parent [3]: 0.58
B1: G9a methyltransferase domain (aa residues 913-1193), wild type, Q96KQ7-1 S1163del; K1164del (protein)
chain: T2 chain
